Values quoted from earlier work as cited in article PMC3937638.

Target: His45 (UniProt position 80, RKIGFHVCAAG)
Conditions: HA8(AN)-bound Link_TSG6

Q: With “TSG-6 Link module (Link_TSG6; tumor necrosis factor-stimulated gene-6 protein, hyaluronan-binding domain) (Homo sapiens)” as the substance, how does the pKa read?
A: 5.7
